B1: mouse anti-GPC3 GC33 scFv (VL-VH) (scFv)
scFv: DVVMTQTPLSLPVSLGDQASISCRSSQSLVHSNGNTYLHWYLQKPGQSPKLLIYKVSNRFSGVPDRFSGSGSGTDFTLKISRVEAEDLGVYFCSQNTHVPPTFGSGTKLEIKGGGGSGGGGSGGGGSQVQLQQSGAELVRPGASVKLSCKASGYTFTDYEMHWVKQTPVHGLKWIGALDPKTGDTAYSQKFKGKATLTADKSSSTAYMELRSLTSEDSAVYYCTRFYSYTYWGQGTLVTVSA
notes: also called mouse scFv; not shown: C-terminal Fc tag (human Fc, used only for capture on the anti-human Fc chip) and any junction to it
B2: VL1-VH2 humanized scFv (scFv, not shown: a dimerising Fc or GST)
scFv: DIVMTQTPLSLSVTPGQPASISCRSSQSLVHSNGNTYLHWYLQKPGQSPQLLIYKVSNRFSGVPDRFSGSGSGTDFTLKISRVEAEDVGVYYCSQNTHVPPTFGQGTKVEIKGGGGSGGGGSGGGGSQVQLVQSGAEVKKPGASVKVSCKASGYTFTDYEMHWVRQAPGQGLEWMGALDPKTGDTAYSQKFKGRVTLTADTSTSTVYMELSSLRSEDTAVYYCTRFYSYTYWGQGTLVTVSS
notes: Crude scFv with Fc tag from HEK293 supernatant
B3: VL1-VH2.M1 humanized scFv (scFv, not shown: a dimerising Fc or GST)
scFv: DIVMTQTPLSLSVTPGQPASISCRSSQSLVHSNGNTYLHWYLQKPGQSPQLLIYKVSNRFSGVPDRFSGSGSGTDFTLKISRVEAEDVGVYYCSQNTHVPPTFGQGTKVEIKGGGGSGGGGSGGGGSQVQLVQSGAEVKKPGASVKVSCKASGYTFTSYEMHWVRQAPGQGLEWMGALDPKTGDTAYSQKFKGRVTLTADTSTSTVYMELSSLRSEDTAVYYCTRFYSYTYWGQGTLVTVSS
notes: as for B2
B4: VL1-VH2.M5 humanized scFv (scFv, not shown: a dimerising Fc or GST)
scFv: DIVMTQTPLSLSVTPGQPASISCRSSQSLVHSNGNTYLHWYLQKPGQSPQLLIYKVSNRFSGVPDRFSGSGSGTDFTLKISRVEAEDVGVYYCSQNTHVPPTFGQGTKVEIKGGGGSGGGGSGGGGSQVQLVQSGAEVKKPGASVKVSCKASGYTFTDYEMHWVRQAPGQGLEWMGALDPKTGDTAYSQKFQGRVTLTADTSTSTVYMELSSLRSEDTAVYYCTRFYSYTYWGQGTLVTVSS
notes: as for B2
B5: VL1-VH2.M6 humanized scFv (scFv, not shown: a dimerising Fc or GST)
scFv: DIVMTQTPLSLSVTPGQPASISCRSSQSLVHSNGNTYLHWYLQKPGQSPQLLIYKVSNRFSGVPDRFSGSGSGTDFTLKISRVEAEDVGVYYCSQNTHVPPTFGQGTKVEIKGGGGSGGGGSGGGGSQVQLVQSGAEVKKPGASVKVSCKASGYTFTSYEMHWVRQAPGQGLEWMGALDPKTGDTAYSQKFQGRVTLTADTSTSTVYMELSSLRSEDTAVYYCTRFYSYTYWGQGTLVTVSS
notes: as for B2
B6: VL1.M2-VH2 humanized scFv (scFv, not shown: a dimerising Fc or GST)
scFv: DIVMTQTPLSLSVTPGQPASISCRSSQSLVHSNGNTYLHWYLQKPGQSPQLLIYKVSSRFSGVPDRFSGSGSGTDFTLKISRVEAEDVGVYYCSQNTHVPPTFGQGTKVEIKGGGGSGGGGSGGGGSQVQLVQSGAEVKKPGASVKVSCKASGYTFTDYEMHWVRQAPGQGLEWMGALDPKTGDTAYSQKFKGRVTLTADTSTSTVYMELSSLRSEDTAVYYCTRFYSYTYWGQGTLVTVSS
notes: as for B2
B7: VL1.M2-VH2.M1 humanized scFv (scFv, not shown: a dimerising Fc or GST)
scFv: DIVMTQTPLSLSVTPGQPASISCRSSQSLVHSNGNTYLHWYLQKPGQSPQLLIYKVSSRFSGVPDRFSGSGSGTDFTLKISRVEAEDVGVYYCSQNTHVPPTFGQGTKVEIKGGGGSGGGGSGGGGSQVQLVQSGAEVKKPGASVKVSCKASGYTFTSYEMHWVRQAPGQGLEWMGALDPKTGDTAYSQKFKGRVTLTADTSTSTVYMELSSLRSEDTAVYYCTRFYSYTYWGQGTLVTVSS
notes: as for B2
B8: VL1.M2-VH2.M5 humanized scFv (scFv, not shown: a dimerising Fc or GST)
scFv: DIVMTQTPLSLSVTPGQPASISCRSSQSLVHSNGNTYLHWYLQKPGQSPQLLIYKVSSRFSGVPDRFSGSGSGTDFTLKISRVEAEDVGVYYCSQNTHVPPTFGQGTKVEIKGGGGSGGGGSGGGGSQVQLVQSGAEVKKPGASVKVSCKASGYTFTDYEMHWVRQAPGQGLEWMGALDPKTGDTAYSQKFQGRVTLTADTSTSTVYMELSSLRSEDTAVYYCTRFYSYTYWGQGTLVTVSS
notes: as for B2
B9: VL1.M2-VH2.M8 humanized scFv (scFv, not shown: a dimerising Fc or GST)
scFv: DIVMTQTPLSLSVTPGQPASISCRSSQSLVHSNGNTYLHWYLQKPGQSPQLLIYKVSSRFSGVPDRFSGSGSGTDFTLKISRVEAEDVGVYYCSQNTHVPPTFGQGTKVEIKGGGGSGGGGSGGGGSQVQLVQSGAEVKKPGASVKVSCKASGYTFTSYEMHWVRQAPGQGLEWMGALDPSTGDTAYSQKFQGRVTLTADTSTSTVYMELSSLRSEDTAVYYCTRFYSYTYWGQGTLVTVSS
B10: VL1.M2-VH2.M9 humanized scFv (scFv, not shown: a dimerising Fc or GST)
scFv: DIVMTQTPLSLSVTPGQPASISCRSSQSLVHSNGNTYLHWYLQKPGQSPQLLIYKVSSRFSGVPDRFSGSGSGTDFTLKISRVEAEDVGVYYCSQNTHVPPTFGQGTKVEIKGGGGSGGGGSGGGGSQVQLVQSGAEVKKPGASVKVSCKASGYTFTSYEMHWVRQAPGQGLEWMGALDPKGGDTAYSQKFQGRVTLTADTSTSTVYMELSSLRSEDTAVYYCTRFYSYTYWGQGTLVTVSS
B11: VL1.M2-VH2.M10 humanized scFv (scFv, not shown: a dimerising Fc or GST)
scFv: DIVMTQTPLSLSVTPGQPASISCRSSQSLVHSNGNTYLHWYLQKPGQSPQLLIYKVSSRFSGVPDRFSGSGSGTDFTLKISRVEAEDVGVYYCSQNTHVPPTFGQGTKVEIKGGGGSGGGGSGGGGSQVQLVQSGAEVKKPGASVKVSCKASGYTFTSYEMHWVRQAPGQGLEWMGALDPSGGDTAYSQKFQGRVTLTADTSTSTVYMELSSLRSEDTAVYYCTRFYSYTYWGQGTLVTVSS
B12: VL1.M3-VH2.M6 humanized scFv (scFv, not shown: a dimerising Fc or GST)
scFv: DIVMTQTPLSLSVTPGQPASISCRSSQSLVHSNGKTYLHWYLQKPGQSPQLLIYKVSSRFSGVPDRFSGSGSGTDFTLKISRVEAEDVGVYYCSQNTHVPPTFGQGTKVEIKGGGGSGGGGSGGGGSQVQLVQSGAEVKKPGASVKVSCKASGYTFTSYEMHWVRQAPGQGLEWMGALDPKTGDTAYSQKFQGRVTLTADTSTSTVYMELSSLRSEDTAVYYCTRFYSYTYWGQGTLVTVSS
B13: VL1.M6-VH2.M6 humanized scFv (scFv, not shown: a dimerising Fc or GST)
scFv: DIVMTQTPLSLSVTPGQPASISCRSSQSLVHSNGNTYLHWYLQKPGQSPQLLIYKVSSRFSGVPDRFSGSGSGTDFTLKISRVEAEDVGVYYCMQNTHVPPTFGQGTKVEIKGGGGSGGGGSGGGGSQVQLVQSGAEVKKPGASVKVSCKASGYTFTSYEMHWVRQAPGQGLEWMGALDPKTGDTAYSQKFQGRVTLTADTSTSTVYMELSSLRSEDTAVYYCTRFYSYTYWGQGTLVTVSS
B14: VL1.M7-VH2.M6 humanized scFv (scFv, not shown: a dimerising Fc or GST)
scFv: DIVMTQTPLSLSVTPGQPASISCRSSQSLVHSNGNTYLHWYLQKPGQSPQLLIYKVSSRFSGVPDRFSGSGSGTDFTLKISRVEAEDVGVYYCSQGTHVPPTFGQGTKVEIKGGGGSGGGGSGGGGSQVQLVQSGAEVKKPGASVKVSCKASGYTFTSYEMHWVRQAPGQGLEWMGALDPKTGDTAYSQKFQGRVTLTADTSTSTVYMELSSLRSEDTAVYYCTRFYSYTYWGQGTLVTVSS
B15: VL1.M8-VH2.M6 humanized scFv (scFv, not shown: a dimerising Fc or GST)
scFv: DIVMTQTPLSLSVTPGQPASISCRSSQSLVHSNGNTYLHWYLQKPGQSPQLLIYKVSSRFSGVPDRFSGSGSGTDFTLKISRVEAEDVGVYYCSQNTHWPPTFGQGTKVEIKGGGGSGGGGSGGGGSQVQLVQSGAEVKKPGASVKVSCKASGYTFTSYEMHWVRQAPGQGLEWMGALDPKTGDTAYSQKFQGRVTLTADTSTSTVYMELSSLRSEDTAVYYCTRFYSYTYWGQGTLVTVSS

What was measured:
[1] = target: T1, GPC3 (UniProt P51654 25-559, limits assumed); assay: SPR (Biacore T200); scFv-Fc captured by anti-human Fc pAb, GPC3 10-320 nM in flow
T1 construct: also called antigen GPC3; Glypican 3
From the text: (§1) The humanized VLs (VL1 and VL1.M2) were connected to humanized VHs (VH2, VH2.M1, VH2.M5 and VH2.M6) with a (G4S)₃ linker (SEQ ID NO: 10) to construct humanized scFvs. These scFvs were expressed with a C-terminal Fc tag in HEK293 cells. The crude scFv proteins secreted to the cell culture supernatant were used for binding affinity determination using surface plasmon resonance (SPR) on a Biacore T200 machine. Briefly, the scFv protein was captured on the sensor chip pre-coated with goat-anti-human Fc polyclonal antibody (pAb) (Jackson ImmunoResearch, cat #109-005-098) via the interaction between pAb and the Fc tag, then the antigen GPC3 concentration ranging from 10 nM to 320 nM flowed through the sensor chip. After 100 s of association, running buffer (10 mM HEPES, 150 mM NaCl, 3 mM EDTA, 0.005% Tween-20, pH 7.4) flowed through the sensor chip to allow the scFv-GPC3 complex to dissociation. The sensor chip was regenerated using 50 mM HCl between cycles.

[2] = target: T1, GPC3; assay: SPR as in Example 1 (Biacore T200; scFv-Fc captured, GPC3 in flow)
From the text: as §1
To further improve the humanization of anti-GPC3 scFvs, additional amino acid residues in VH1 and VL1 were mutated to their human germline counterparts. In HCDR2 of VH2.M6, mutations K54S, T55G or both were introduced, yielding VH2.M8 (SEQ ID NO: 11), VH2.M9 (SEQ ID NO: 12) and VH2.M10 (SEQ ID NO: 13) sequences, respectively. Mutation D57S was introduced to VH2.M6, yielding VH2.M11 sequence (SEQ ID NO: 14). All three additional mutations was introduced to VH2.M6, yielding VH2.M12 sequence (SEQ ID NO: 15). Similarly for VL1.M2, an additional N35K mutation was introduced to LCDR1, yielding VL1.M3 (SEQ ID NO: 16). Additional S94M, N96G and V99W mutations were introduced to LCDR3 of VL1.M2 individually, yielding VL1.M6 (SEQ ID NO: 17), VL1.M7 (SEQ ID NO: 18) and VL1.M8 (SEQ ID NO: 19) sequences, respectively. Additional S94M mutations was introduced to LCDR3 of VL1, yielding VL1.M9 (SEQ ID NO: 137) sequence. The binding affinity of these humanized variants were again determined using SPR as described in Example 1 (Table 5).

T1 sequence (P51654 25-559 limits assumed): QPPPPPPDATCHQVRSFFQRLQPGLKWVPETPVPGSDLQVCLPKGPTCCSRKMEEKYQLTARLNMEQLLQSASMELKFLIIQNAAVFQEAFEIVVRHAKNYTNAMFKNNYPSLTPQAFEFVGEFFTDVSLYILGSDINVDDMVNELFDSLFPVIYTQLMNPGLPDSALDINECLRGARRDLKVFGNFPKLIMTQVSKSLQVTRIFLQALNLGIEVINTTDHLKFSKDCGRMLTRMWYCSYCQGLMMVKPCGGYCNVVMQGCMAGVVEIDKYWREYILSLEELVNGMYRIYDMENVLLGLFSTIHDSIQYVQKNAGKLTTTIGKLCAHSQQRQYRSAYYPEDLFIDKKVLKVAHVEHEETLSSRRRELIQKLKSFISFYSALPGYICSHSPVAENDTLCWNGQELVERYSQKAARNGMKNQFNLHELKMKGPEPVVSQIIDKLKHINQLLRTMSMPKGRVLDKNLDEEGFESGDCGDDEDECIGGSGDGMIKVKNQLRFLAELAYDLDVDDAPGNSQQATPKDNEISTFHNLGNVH

Row | Binder | Kd [1] [nM] | koff [1] [s⁻¹] | kon [1] [M⁻¹ s⁻¹] | Kd [2] [nM] | koff [2] [s⁻¹] | kon [2] [M⁻¹ s⁻¹]
1 | B1 | 1.8 | 0.00023 | 130000 | 4 | 0.00021 | 51000
2 | B2 | 1.7 | 0.00029 | 170000 | – | – | –
3 | B3 | 1.9 | 0.00036 | 190000 | – | – | –
4 | B4 | 1.6 | 0.00027 | 170000 | – | – | –
5 | B5 | 2 | 0.00037 | 190000 | – | – | –
6 | B6 | 2.2 | 0.00035 | 160000 | – | – | –
7 | B7 | 3 | 0.00051 | 170000 | – | – | –
8 | B8 | 2.1 | 0.00037 | 170000 | – | – | –
9 | B9 | – | – | – | 6 | 0.00044 | 74000
10 | B10 | – | – | – | 8.2 | 0.0006 | 74000
11 | B11 | – | – | – | 6.8 | 0.0005 | 74000
12 | B12 | – | – | – | 27 | 0.0016 | 61000
13 | B13 | – | – | – | 5.7 | 0.00058 | 100000
14 | B14 | – | – | – | 51 | 0.0034 | 67000
15 | B15 | – | – | – | 44 | 0.0042 | 94000

From patent US20250297029A1 (NANJING LEGEND BIOTECH, published 2025)
